The results in this text go back to the supplement of paper PMC5998384.

In data set [1] the test system is HeLa Kyoto. The experiment in a line: solubility in G1/S (NP-40 vs SDS abundance) (log2 ratio); higher = more soluble. To be noted: cell cycle stage: G1/S.
In data set [2] the test system is HeLa Kyoto. Description: solubility change mitosis vs G1/S (difference of NP-40 vs SDS log2 ratios) (log2 ratio difference); higher = more soluble in mitosis.
Data set [3] deals with HeLa Kyoto. The experiment in a line: melting temperature (median over replicates), in situ; higher = more thermally stable.
Data set [4] relates to HeLa Kyoto. The experiment in a line: thermal stability score vs G1/S (z-score of summed log2 fold changes over temperatures); higher = more thermally stable than in G1/S.
[5] abbreviates: cell cycle stage: early G1 (4.5 h after nocodazole release).
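Wherever melting temperature (median over replicates), in situ is given: HeLa Kyoto cells synchronized by double thymidine or nocodazole block, proteins quantified by TMT10plex mass spectrometry, three independent biological replicates.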
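Wherever solubility change mitosis vs G1/S (difference of NP-40 vs SDS log2 ratios) is given: synchronized HeLa Kyoto cells (double thymidine block for G1/S, nocodazole release for mitosis), protein amounts in NP-40 versus SDS lysates quantified by mass spectrometry, three biological replicates.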
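Wherever solubility in G1/S (NP-40 vs SDS abundance) is given: HeLa Kyoto cells arrested at G1/S by double thymidine block, proteins quantified by TMT10plex mass spectrometry in mild NP-40 versus SDS extracts, three biological replicates.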
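Wherever thermal stability score vs G1/S (z-score of summed log2 fold changes over temperatures) is given: synchronized HeLa Kyoto cells, proteins quantified by TMT10plex mass spectrometry, three biological replicates, mitosis taken 0.5 h after nocodazole release, G1/S directly after double thymidine block.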

On to “MNEEYDVIVLGTGLTECILSGIMSVNGKKVLHMDRNPYYGGESASITPLEDLYKRFKIPGSPPESMGRGRDWNVDLIPKFLMANGQLVKMLLYTEVTRYLDFKVTEGSFVYKGGKIYKVPSTEAEALASSLMGLFEKRRFRKFLVYVANFDEKDPRTFEGIDPKKTTMRDVYKKFDLGQDVIDFTGHALALYRTDDYLDQPCYETINRIKLYSESLARYGKSPYLYPLYGLGELPQGFARLSAIYGGTYMLNKPIEEIIVQNGKVIGVKSEGEIARCKQLICDPSYVKDRVEKVGQVIRVICILSHPIKNTNDANSCQIIIPQNQVNRKSDIYVCMISFAHNVAAQGKYIAIVSTTVETKEPEKEIRPALELLEPIEQKFVSISDLLVPKDLGTESQIFISRTYDATTHFETTCDDIKNIYKRMTGSEFDFEEMKRKKNDIYGED [GDI2]”, for which the “solubility in G1/S (log2)” value with HeLa Kyoto [1] was 0.218. Also, in the data set on HeLa Kyoto [2], the “solubility change mitosis (log2)” value was -0.174. Also, the melting temperature with HeLa Kyoto [3] (cell cycle stage: G1/S) worked out at 55.2 °C; in the data set with HeLa Kyoto [3] (cell cycle stage: mitosis), 54.7 °C. The values for the thermal stability score in the data set on HeLa Kyoto [4] (setting [5]) and in the data set with HeLa Kyoto [4] (cell cycle stage: mitosis) were -1.03 and -0.13, respectively.
On to “MAQFGGQKNPPWATQFTATAVSQPAALGVQQPSLLGASPTIYTQQTALAAAGLTTQTPANYQLTQTAALQQQAAAAAAALQQQYSQPQQALYSVQQQLQQPQQTLLTQPAVALPTSLSLSTPQPTAQITVSYPTPRSSQQQTQPQKQRVFTGVVTKLHDTFGFVDEDVFFQLSAVKGKTPQVGDRVLVEATYNPNMPFKWNAQRIQTLPNQNQSQTQPLLKTPPAVLQPIAPQTTFGVQTQPQPQSLLQAQISAASITPLLQTQPQPLLQQPQQKAGLLQPPVRIVSQPQPARRLDPPSRFSGRNDRGDQVPNRKDDRSRERERERRRSRERSPQRKRSRERSPRRERERSPRRVRRVVPRYTVQFSKFSLDCPSCDMMELRRRYQNLYIPSDFFDAQFTWVDAFPLSRPFQLGNYCNFYVMHREVESLEKNMAILDPPDADHLYSAKVMLMASPSMEDLYHKSCALAEDPQELRDGFQHPARLVKFLVGMKGKDEAMAIGGHWSPSLDGPDPEKDPSVLIKTAIRCCKALTGIDLSVCTQWYRFAEIRYHRPEETHKGRTVPAHVETVVLFFPDVWHCLPTRSEWETLSRGYKQQLVEKLQGERKEADGEQDEEEKDDGEAKEISTPTHWSKLDPKTMKVNDLRKELESRALSSKGLKSQLIARLTKQLKVEEQKEEQKELEKSEKEEDEDDDRKSEDDKEEEERKRQEEIERQRRERRYILPDEPAIIVHPNWAAKSGKFDCSIMSLSVLLDYRLEDNKEHSFEVSLFAELFNEMLQRDFGVRIYKSLLSLPEKEDKKEKDKKSKKDERKDKKEERDDETDEPKPKRRKSGDDKDKKEDRDERKKEDKRKDDSKDDDETEEDNNQDEYDPMEAEEAEDEEDDRDEEEMTKRDDKRDINRYCKERPSKDKEKEKTQMITINRDLLMAFVYFDQSHCGYLLEKDLEEILYTLGLHLSRAQVKKLLNKVVLRESCFYRKLTDTSKDEENHEESESLQEDMLGNRLLLPTPTVKQESKDVEENVGLIVYNGAMVDVGSLLQKLEKSEKVRAEVEQKLQLLEEKTDEDEKTILNLENSNKSLSGELREVKKDLSQLQENLKISENMNLQFENQMNKTIRNLSTVMDEIHTVLKKDNVKNEDKDQKSKENGASV [CCAR1]”, for which, in the data set with HeLa Kyoto [1], the “solubility in G1/S (log2)” value was -0.232. Besides, the “solubility change mitosis (log2)” value in the data set with HeLa Kyoto [2] was determined as 0.0916. Besides, the melting temperature in the data set with HeLa Kyoto [3] (cell cycle stage: G1/S) is 50.9 °C; in the data set on HeLa Kyoto [3] (cell cycle stage: mitosis), 50.8 °C. Moreover, the thermal stability score in the data set with HeLa Kyoto [4] (setting [5]) was found to be 0.304; in the data set on HeLa Kyoto [4] (cell cycle stage: mitosis) it was 1.74.
As to “MRGVWPPPVSALLSALGMSTYKRATLDEEDLVDSLSEGDAYPNGLQVNFHSPRSGQRCWAARTQVEKRLVVLVVLLAAGLVACLAALGIQYQTRSPSVCLSEACVSVTSSILSSMDPTVDPCHDFFSYACGGWIKANPVPDGHSRWGTFSNLWEHNQAIIKHLLENSTASVSEAERKAQVYYRACMNETRIEELRAKPLMELIERLGGWNITGPWAKDNFQDTLQVVTAHYRTSPFFSVYVSADSKNSNSNVIQVDQSGLGLPSRDYYLNKTENEKVLTGYLNYMVQLGKLLGGGDEEAIRPQMQQILDFETALANITIPQEKRRDEELIYHKVTAAELQTLAPAINWLPFLNTIFYPVEINESEPIVVYDKEYLEQISTLINTTDRCLLNNYMIWNLVRKTSSFLDQRFQDADEKFMEVMYGTKKTCLPRWKFCVSDTENNLGFALGPMFVKATFAEDSKSIATEIILEIKKAFEESLSTLKWMDEETRKSAKEKADAIYNMIGYPNFIMDPKELDKVFNDYTAVPDLYFENAMRFFNFSWRVTADQLRKAPNRDQWSMTPPMVNAYYSPTKNEIVFPAGILQAPFYTRSSPKALNFGGIGVVVGHELTHAFDDQGREYDKDGNLRPWWKNSSVEAFKRQTECMVEQYSNYSVNGEPVNGRHTLGENIADNGGLKAAYRAYQNWVKKNGAEHSLPTLGLTNNQLFFLGFAQVWCSVRTPESSHEGLITDPHSPSRFRVIGSLSNSKEFSEHFRCPPGSPMNPPHKCEVW [ECE1]”, in the data set on HeLa Kyoto [1], the “solubility in G1/S (log2)” value was found to be 0.243. The “solubility change mitosis (log2)” value in the data set on HeLa Kyoto [2] is -0.00992. In addition, the melting temperature was determined as 56.1 °C in the data set on HeLa Kyoto [3] (cell cycle stage: G1/S) and 55.2 °C in the data set with HeLa Kyoto [3] (cell cycle stage: mitosis). Also, the thermal stability score with HeLa Kyoto [4] (setting [5]) was -1.05; in the data set on HeLa Kyoto [4] (cell cycle stage: mitosis) it was -0.159.
As for “MPAERPAGSGGSEAPAMVEQLDTAVITPAMLEEEEQLEAAGLERERKMLEKARMSWDRESTEIRYRRLQHLLEKSNIYSKFLLTKMEQQQLEEQKKKEKLERKKESLKVKKGKNSIDASEEKPVMRKKRGREDESYNISEVMSKEEILSVAKKNKKENEDENSSSTNLCVEDLQKNKDSNSIIKDRLSETVRQNTKFFFDPVRKCNGQPVPFQQPKHFTGGVMRWYQVEGMEWLRMLWENGINGILADEMGLGKTVQCIATIALMIQRGVPGPFLVCGPLSTLPNWMAEFKRFTPDIPTMLYHGTQEERQKLVRNIYKRKGTLQIHPVVITSFEIAMRDRNALQHCYWKYLIVDEGHRIKNMKCRLIRELKRFNADNKLLLTGTPLQNNLSELWSLLNFLLPDVFDDLKSFESWFDITSLSETAEDIIAKEREQNVLHMLHQILTPFLLRRLKSDVALEVPPKREVVVYAPLSKKQEIFYTAIVNRTIANMFGSSEKETIELSPTGRPKRRTRKSINYSKIDDFPNELEKLISQIQPEVDRERAVVEVNIPVESEVNLKLQNIMMLLRKCCNHPYLIEYPIDPVTQEFKIDEELVTNSGKFLILDRMLPELKKRGHKVLLFSQMTSMLDILMDYCHLRDFNFSRLDGSMSYSEREKNMHSFNTDPEVFIFLVSTRAGGLGINLTAADTVIIYDSDWNPQSDLQAQDRCHRIGQTKPVVVYRLVTANTIDQKIVERAAAKRKLEKLIIHKNHFKGGQSGLNLSKNFLDPKELMELLKSRDYEREIKGSREKVISDKDLELLLDRSDLIDQMNASGPIKEKMGIFKILENSEDSSPECLF [HELLS]”, the “solubility in G1/S (log2)” value in the data set with HeLa Kyoto [1] was -0.204. Also, the “solubility change mitosis (log2)” value in the data set with HeLa Kyoto [2] stood at 0.252. Further, the figures for the melting temperature with HeLa Kyoto [3] (cell cycle stage: G1/S) and with HeLa Kyoto [3] (cell cycle stage: mitosis) were 46.2 °C and 48.2 °C, respectively. For the same sequence, the thermal stability score was found to be 1.77 with HeLa Kyoto [4] (setting [5]) and 3.02 in the data set on HeLa Kyoto [4] (cell cycle stage: mitosis).
As for “MAAFSKYLTARNSSLAGAAFLLLCLLHKRRRALGLHGKKSGKPPLQNNEKEGKKERAVVDKVFFSRLIQILKIMVPRTFCKETGYLVLIAVMLVSRTYCDVWMIQNGTLIESGIIGRSRKDFKRYLLNFIAAMPLISLVNNFLKYGLNELKLCFRVRLTKYLYEEYLQAFTYYKMGNLDNRIANPDQLLTQDVEKFCNSVVDLYSNLSKPFLDIVLYIFKLTSAIGAQGPASMMAYLVVSGLFLTRLRRPIGKMTITEQKYEGEYRYVNSRLITNSEEIAFYNGNKREKQTVHSVFRKLVEHLHNFILFRFSMGFIDSIIAKYLATVVGYLVVSRPFLDLSHPRHLKSTHSELLEDYYQSGRMLLRMSQALGRIVLAGREMTRLAGFTARITELMQVLKDLNHGKYERTMVSQQEKGIEGVQVIPLIPGAGEIIIADNIIKFDHVPLATPNGDVLIRDLNFEVRSGANVLICGPNGCGKSSLFRVLGELWPLFGGRLTKPERGKLFYVPQRPYMTLGTLRDQVIYPDGREDQKRKGISDLVLKEYLDNVQLGHILEREGGWDSVQDWMDVLSGGEKQRMAMARLFYHKPQFAILDECTSAVSVDVEGYIYSHCRKVGITLFTVSHRKSLWKHHEYYLHMDGRGNYEFKQITEDTVEFGS [ABCD3]”, the “solubility in G1/S (log2)” value in the data set with HeLa Kyoto [1] was -0.213. Further, in the data set on HeLa Kyoto [2], the “solubility change mitosis (log2)” value is -0.103. Moreover, the melting temperature with HeLa Kyoto [3] (cell cycle stage: G1/S) worked out at 52.5 °C; in the data set on HeLa Kyoto [3] (cell cycle stage: mitosis) it was 52.3 °C. For the same sequence, the results for the thermal stability score in the data set with HeLa Kyoto [4] (setting [5]) and with HeLa Kyoto [4] (cell cycle stage: mitosis) were 1.37 and 0.619, respectively.
